# Assay: soluble on expression in E. coli; label from the status in PepcDB or PDB records
row,Sequence,soluble on expression in E. coli
1,MTDAAIAEKDLGNAAYKQKDFEKAHVHYDKAIELDPSNITFYNNKAAVYFEEKKFAECVQFCEKAVEVGRETRADYKLIAKAMSRAGNAFQKQNDLSLAVQWFHRSLSEFRDPELVKKVKELEKQLKAAERLAYINPELAQEEKNKGNEYFKKGDYPTAMRHYNEAVKRDPENAILYSNRAACLTKLMEFQRALDDCDTCIRLDSKFIKGYIRKAACLVAMREWSKAQRAYEDALQVDPSNEEAREGVRNCLRSNDEDPEKAKERSLADPEVQEILRDPGMRMILEQMSNDPGAVREHLKNPEIFQKLMKLRDAGVIQMR,soluble
2,MTDAALPPLIQQMLQPEFYPHVVEAPVQLYQTHCSYVLLTGPYAYKLKKPVYFGFLDYSTLEKRQHFLQEELRLNQRTAAPLYQQVLAISQAGDRYQFAETEPAAEYVLQMKQFPKGCLFSEQFESGQLDASVMRQLAAVVAEFHTKTWVDDHVRSYGQVAQIRKAFDENYQQTLHYIGGPQTQAQFDTTKAFSDRFFDTKADLFAARLAADKIRECHGDLHLGNLCRWDNQLFLFDCIEFNEPFRFVDTMYDIAFLVMDLDARGRQDLGTAFLNAYAEMSGDWEGLQVLPLYLSRQAYVRAKVTSFLLDDPAIDSDRRQQAFDQAAAYYQLAHAYAQPAQQGELLLLSGLSGSGKSTLGRTIAERQRAIILRSDAVRKHLAGISLLERGGPEIYSPEMSDRTYGRLLYLGLGLAQAGYRVILDAKYDRQAYRGAALTAAQAQQIPIQILHCQASEETLRQRLQARQGDIADATADLLAQQLTAWQDFSEDEQGFVRAIATEKPLTQQLDALGFLEHHHHHH,not soluble
3,MTDARPRICILGGGFGGLYTALRLGQLSWEGHTPPEIVLVDQRDRFLFAPFLYELVTEEMQTWEIAPPFVELLAESGVIFRQAEVTAIDFDHQKVLLNDQDKGTESLAFDQLVIALGGQTPLPNLPGLKDYGLGFRTLEDAYKLKQKLKSLEQADAEKIRIAIVGGGYSGVELAAKLGDRLGERGRIRIIERGKEILAMSPEFNRQQAQASLSAKGIWVDTETTVTAITATDVTLQFREQEDVIPVDLVLWTVGTTVSPLIRNLALPHNDQGQLRTNAQLQVEGKTNIFALGDGAEGRDASGQLIPTTAQGAFQQTDYCAWNIWANLTGRPLLPCRYQPLGEMLALGTDGAVLSGLGIKLSGPAALLARRLVYLYRFPTWQHQLTVGLNWLTRPLGDWLKNEPSLEHHHHHH,not soluble
4,MTDDRVEQVLEAARRLVAAFARNDAEAYFAAFSEDASFIFHNWPQPLRSRAAYRKLWERWRREDGFEVLACESSNTCVSLQGDLAIFSHDVATRLRLQGTESLNRERETILFRLEQQEGRWLACHEHLSAMPEYLPSTS,not soluble
5,MTDDSAVESKQKKSKIRKGHWIPVVAGFLRKDGKILVGQRPENNSLAGQWEFPGGKIENGETPEEALARELNEELGIEAEVGELKLACTHSYGDVGILILFYEILYWKGEPRAKHHMMLEWIHPEELKHRNIPEANRKILHKIYKALGLEWRK,soluble
6,MTDEVILANATLVLRGETVTGSLHIKGETIAGIDQGAHVPAGAVDCEGDFVSPGLVELHTDNLERHIQPRPKVDWPHAAAILAHDAELAGTGITTVFDAMRVGSIPSGAGRYLQYARNLSRELWQLREASALKISHFLHLRAEVCSETLVEELDEFAPEDRVGLVSLMDHTPGQRQFRDMTKLEAYMKGKHAMSDDTFLQHVSQLKGLRDRYGDRHEIETVKAARRLGSVLASHDDTTAEQVAVSAGHGIRLAEFPTTIEAAEACHAHGIKVIMGAPNLIRGGSHSGNVAAADLAERGLLDILSSDYVPSALLLSAVRLGALWGDMARGMATVTRTPAQAVGLDDRGEIAPGLRADLIRFRMSQDVPALQSVWSRGRRVA,not soluble
7,MTDQLRLMAVHAHPDDESSKGAATMAKYVSEGVDVLVVTCTGGERGSILNPKLQGDAYIEENIHEVRRKEMDEAREILGVGQEWLGFVDSGLPEGDPLPPLPEGCFALEDVDKAAGELVRKIRSFRPQVITTYDENGGYPHPDHIMTHKITMVAFEGAADTEKYPESEYGTAYQPLKVYYNQGFNRPRTEALHHALLDRGLESPYEDWLKRWSEFERKERTLTTHVPCADFFEIRDKALIAHATQIDPEGGWFRVPMEIQKEVWPTEEYELAKSLVETSLPEDDLFAGIRDNALEHHHHHH,not soluble
8,MTDTIEAKANMQTVSALPPEETERLGTEIVAALKTVFDPEIPADIYELGLIYKVEIKDDRTVDIDMTLTTPNCPAAAELPTMVENAVASVPGVGVVNVNIVWEPPWTPERMSDEARLVLNMW,not soluble
9,MTDVIKPDYLEYDDLLDRDEMFTILEEYFMYRGLLGLRIKYGRLFNEIKKFDNDAEEQFGTIEELKQKLRLNSEEGADNFIDYIKVQKQDIVKLTVYDCISMIGLCACVVDVWRNEKLFSRWKYCLRAIKLFINDHMLDKIKSILQNRLVYVEMSKHHHHHH,soluble
10,MTDVLPTIELFDGIAEELDNVSLRRDRQSGTRNVLLRFRALKALDRFNSFRSRFSKAIRLTDSEGAIELWPDSSKLVFGGDDGDELDRVEFVVPIDNEDHWQRFMRFMERYAAANDMTYGDRQALEHHHHHH,soluble
11,MTEAEILRLIRRVSGISQQADEQTTQPDSVTAENYARVVAEVMRRDGIQLNDADMRDIRIRVLEMLAYNRRVELYREKEKITYHWKKPERLRR,not soluble
12,MTEEFNESMINDIKEGDKVTGEVQQVEDKQVVVHINGGKFNGIIPISQLSTHHIENPSEVVKVGDEVEAYVTKIEFDEENDTGAYILSKRQLETEKSYEYLQEKLDNDEVIEAEVTEVVKGGLVVDVGQRGFVPASLISTDFIEDFSVFDGQTIRIKVEELDPENNRVILSRKAVEQLENDAKKASILDSLNEGDVIDGKVARLTNFGAFINIGGVDGLVHVSELSHGTCSNTRRSCVSRLEHHHHHH,soluble
13,MTEIYEQAKHSLQGEDFSSFNYLFAVNKLLSNPVSYDLGRDLIVRALDSRERFSEHTTILKNMVRKSGLFPYLKKEFTSLTPDDLRVLELYRTPFSDGYVFHSMQFHIFDLLKSGQNVVLSAPTSMGKSAIVDSLLGMGTLKRLVLVVPTVALADETRRRLQERFGDRYQIIHHSSQVCHSDQAVYVLTQERVNERDDIVDIDLFVIDEFYKLAFRQLKSGDIDHQDERVIELNIALSKLLKVSRQFYLTGPFVNSIRGLEKLGYPHTFVSTDFNTVALDVKTFGIKANDDKAKLKALGEIAHACVDATIIYCKSPTVAGLVARELIRLGHGTPTENPHVDWVSEEFDADWDYTVALRNGIGLHFGALPRALQQYTADQFNAGKLRFLLCTSTIIEGVNTIAKNVVIYDNRDGTRSIDKFTHGNIKGRAGRMGVHFVGKIFCLEEIPEDNLNQEVDIPLGIQGIDTPINLLASVQPDHLSEFSQDRFDEVFINDRVSIDLVKKHSYFRVEQFEMLQSMFEMMDDNEFSSLVFHWTPATNFLKTFAKIIARLVPHTFSRNGVPVKPTDVMIAKLAGYLSAESYSEYLKNQIDYARQWISEGEKRTLSIALNNDLKLITNTFGYTLPKVLSLMEDVVKHHAVKRGIRSKVDYTHVKLAFESFHLPPGVNALEEIGIPIQTLHRLVDLLEFSDEADVDELSQYLRDTQDIWSRSIGYVDQMFIRRALGIRRH,not soluble
14,MTEMKILIVTLTYIEKSIIDEIVNNLSSYGLEVDILLDSRKYLPISAFNWERLQYDAEKVLSFLKSIHDFNYDSIIFLADSDGYIDGYNFVFGLTIDNFAIIFLHRLREEFYNRKPDLDLFMKRVVKEVTHEVGHTLGLSHCNTTGCVMNFSNSVEDVDKKQAKFCKNCAHKIEKLSKYLQQKLEHHHHHH,not soluble
15,MTENIHKHRILILDFGSQYTQLVARRVRELGVYCELWAWDVTEAQIRDFNPSGIILSGGPESTTEENSPRAPQYVFEAGVPVFGVCYGMQTMAMQLGGHVEASNEREFGYAQVEVVNDSALVRGIEDALTADGKPLLDVWMSHGDKVTAIPSDFITVASTESCPFAIMANEEKRFYGVQFHPEVTHTRQGMRMLERFVRDICQCEALWTPAKIIDDAVARIREQVGDDKVILGLSGGVDSSVTAMLLHRAIGKNLTCVFVDNGLLRLNEAEQVLDMFGDHFGLNIVHVPAEDRFLSALAGENDPEAKRKIIGRVFVEVFDEEALKLEDVKWLAQGTIYPDVIESAASATGKAHVIKSHHNVGGLPKEMKMGLVEPLKELFKDEVRKIGLELGLPYDMLYRHPFPGPGLGVRVLGEVKKEYCDLLRRADAIFIEELRKADLYDKVSQAFTVFLPVRSVGVMGDGRKYDWVVSLRAVETIDFMTAHWAHLPYDFLGRVSNRIINEVNGISRVVYDISGKPPATIEWE,soluble
16,MTEPGERRRRTTSTATRERGVRDARDAARRAADALSELIRHHLEGVSAVCRGEDGGWIVNVDVLEVARIPDTTSLLATYEVELDPAGDLLQYRRIARYRRGAQDQLEHHHHHH,not soluble
17,MTEQTILMGNLNEVAKKAAQWLINRKPIKSIIDWGISFSLWPPHFTTSCCGTEFGAFAAARFDAERYGMLPFSSARQSNILILEGTLSRKMGRAARIVYDQMPEPKYVIALGACILEGGIFWNSYNTVLPSDIGIPVDLYVPGCPIRPEAVARAVLMLQKKIRTQGALKT,not soluble
18,MTETDKKQEQENHAECEDKPKPCCVCKPEKEERDTCILFNGQDSEKCKEFIEKYKECMKGYGFEVPSAN,soluble
19,MTETEQTTAPIYPLKRNWTWWYLNDERNKSWEDRLKKVYTFNTVSEFWALYDAIRPPSGLNALCDYNVFRDDIQPMWEVPENSNGGRWLIVIDKGKTPEMVDAIWLEILMALVGEQFGKDMESICGLVCNVRGKGSKISVWTKDCNDDETNMRIGVVLKEKLMAASKDHSKPLFDVIRYEDHESCQKKTSSVVKAKLSLHSSDAPVAEKSAV,not soluble
20,MTFTGLPPEDVPALMTGAVIPHPSVAGRADAYLPSPCIQNHAANLAFLPDGTLSCVWFGGTMEGMRDISIYMSRLPPGSGRWSEPEKMSDDPEKSEQNPLIFNAPDGKTWLLYTSQTSGNQDGSIVKCRISDDGGKTFGPVQILCDSPGTFVRQQIVVNDRGDWLLPIFRCVGLEGQRWSGDADTAAVLISRDGGASWQMRDIPDSIGAVHMNILPLGGCEMIAFYRNRFAETILSSRSADGGETWSPPEPTELPNNNSSIQATVLDNGGIAMVYNHSNATMSDARRQSLYDEIEGDECGENAAVVADAGRKAVWGVPRAPLSLAISRDGGRTFPHRIDLDTGDGFCLSNNSKDSLNREFSYPSVIEGSDGTLHVAYTYYRRAIKYVRLAPRALPLEHHHHHH,soluble
21,MTGAVCPGSFDPVTLGHVDIFERAAAQFDEVVVAILVNPAKTGMFDLDERIAMVKESTTHLPNLRVQVGHGLVVDFVRSCGMTAIVKGLRTGTDFEYELQMAQMNKHIAGVDTFFVATAPRYSFVSSSLAKEVAMLGGDVSELLPEPVNRRLRDRLNTERT,not soluble
22,MTGDHIKVIYFNGRGRAESIRMTLVAAGVNYEDERISFQDWPKIKPTIPGGRLPAVKITDNHGHVKWMVESLAIARYMAKKHHMMGGTEEEYYNVEKLIGQAEDLEHEYYKTLMKPEEEKQKIIKEILNGKVPVLLDIICESLKASTGKLAVGDKVTLADLVLIAVIDHVTDLDKEFLTGKYPEIHKHRENLLASSPRLAKYLSDRAATPF,soluble
23,MTGLINAIPATNKDEYKNVGVYIEHRGDELKRPSIEMIGIGKQLARKVNEKLICVVIGDKVDGIAKEVGEYGCDIVLAAESPELAEYRTMPYAEIIGGYIQEYKPNIFLLAATRNGRDLASRIAVKSRTGITADCTVLDIDENRTLLANRPTYGESTLAEILCRNHRPQMATARPGIFPPAEKEKDHKYEVIKKKVDVDKKLLGKQILKFI,not soluble

# Reference: the DeepSol protein solubility set
